Results on three molecules are retold here after patent US20250042961A1, “P53 PEPTIDOMIMETIC MACROCYCLES” (MERCK SHARP & DOHME LLC, priority 2021, published 2025).

Bridges are numbered along the chain shown (N, C = ends). [ ]: non-standard residue; d: D form. dPhe(4-CF3) = N[C@H](Cc1ccc(C(F)(F)F)cc1)C(=O)O; dTrp(6-F) = N[C@H](Cc1c[nH]c2cc(F)ccc12)C(=O)O; R5 = C=CCCC[C@@](C)(N)C(=O)O; FAM = carboxyfluorescein

The target of experiment [1] is T1, MDM4 protein (human), O15151.
T1 chain: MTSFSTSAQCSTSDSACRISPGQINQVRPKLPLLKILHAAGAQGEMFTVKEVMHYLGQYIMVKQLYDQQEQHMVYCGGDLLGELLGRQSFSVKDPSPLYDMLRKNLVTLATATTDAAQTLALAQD
In words: direct fluorescence anisotropy titration of MDM4 against 50 nM FAM-labeled peptide; apparent Kd, 1:1 model. Background: Fluorescence polarisation rises when a labelled molecule tumbles more slowly, as on binding a larger partner.

The target in experiment [2] is MDM2 (in HCT116 cells) (human), Q00987. Nature of the experiment: cell-based or functional assay.
In experiment [3] the target is Purified MDM2 (1-125) protein (human MDM2 1-125 sequence comprising a modified TEV cleavage site, pNIC-GST fusion) (human), Q00987. Nature of the experiment: competitive fluorescence anisotropy (FP) against FAM-labeled 12/1 peptide on MDM2 (1-125); apparent Kd.
Sequence of Purified MDM2 (1-125) protein (human MDM2 1-125 sequence comprising a modified TEV cleavage site, pNIC-GST fusion) (human), Q00987 (Q00987 1-125 limits assumed): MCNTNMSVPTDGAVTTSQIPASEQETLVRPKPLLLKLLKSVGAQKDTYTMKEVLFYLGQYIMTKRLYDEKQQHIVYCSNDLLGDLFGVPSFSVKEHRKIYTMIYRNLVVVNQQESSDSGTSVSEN

B1: carboxyfluorescein (FAM)-labeled 12/1 peptide 13 (FAM-…-NH2) (peptide)
peptide: {FAM}-RFMDYWEGL-NH2
modifications: also: places C-terminal amide at E7
Take B1: the Kd in experiment [1] turned out to be 4 nM.

B2: Acetyl-^DPMI-δ-(6-10 olefin staple) (D-K9D-Q, D-R12D-S, 6x(D-A) polypeptide tail)-NH2 (peptide)
peptide: Ac-[dT][dA][dTrp(6-F)][dY][dA][R5][dPhe(4-CF3)][dE][dQ][R5][dL][dS][dA][dA][dA][dA][dA][dA]-NH2
modifications: staple 6-10; also: mixture of cis-trans isomers
In experiment [2], B2 displayed a p53 activity EC50 (µM) (0% FBS, 4 h) of 0.61 µM and a p53 activity EC50 (µM) (10% FBS, 16 h) of 0.28 µM. Moreover, the Kd in experiment [3] is 3.2 nM.

B3: Acetyl-^DPMI-δ-(6-10 olefin staple) (D-K9D-Q, D-R12D-S, 9x(D-A) polypeptide tail)-NH2 (peptide)
peptide: Ac-[dT][dA][dTrp(6-F)][dY][dA][R5][dPhe(4-CF3)][dE][dQ][R5][dL][dS][dA][dA][dA][dA][dA][dA][dA][dA][dA]-NH2
modifications: staple 6-10; also: mixture of cis-trans isomers
For B3, in experiment [2], the p53 activity EC50 (µM) (0% FBS, 4 h) stood at 50 µM and the p53 activity EC50 (µM) (10% FBS, 16 h) was greater than 50 µM. The Kd in experiment [3] is 21.7 nM.
